Results from patent US20250152729A1 (CANCER RESEARCH TECHNOLOGY, published 2025).

Key:
[1] = biological target: T1, recombinant human SEMA4A AviHis10, biotinylated (human, UniProt Q9H3S1 33-683, biotin on the Avi tag (BirA)); test: BLI (OctetRED), biotinylated SEMA4A on streptavidin tip, Fab as analyte, 1:1 model
T1 construct: The text says amino acids 33-683 of Q9H3S1 with C-terminal Avi tag and His10 tag; also called avi-SEMA4A-His10
T1 sequence: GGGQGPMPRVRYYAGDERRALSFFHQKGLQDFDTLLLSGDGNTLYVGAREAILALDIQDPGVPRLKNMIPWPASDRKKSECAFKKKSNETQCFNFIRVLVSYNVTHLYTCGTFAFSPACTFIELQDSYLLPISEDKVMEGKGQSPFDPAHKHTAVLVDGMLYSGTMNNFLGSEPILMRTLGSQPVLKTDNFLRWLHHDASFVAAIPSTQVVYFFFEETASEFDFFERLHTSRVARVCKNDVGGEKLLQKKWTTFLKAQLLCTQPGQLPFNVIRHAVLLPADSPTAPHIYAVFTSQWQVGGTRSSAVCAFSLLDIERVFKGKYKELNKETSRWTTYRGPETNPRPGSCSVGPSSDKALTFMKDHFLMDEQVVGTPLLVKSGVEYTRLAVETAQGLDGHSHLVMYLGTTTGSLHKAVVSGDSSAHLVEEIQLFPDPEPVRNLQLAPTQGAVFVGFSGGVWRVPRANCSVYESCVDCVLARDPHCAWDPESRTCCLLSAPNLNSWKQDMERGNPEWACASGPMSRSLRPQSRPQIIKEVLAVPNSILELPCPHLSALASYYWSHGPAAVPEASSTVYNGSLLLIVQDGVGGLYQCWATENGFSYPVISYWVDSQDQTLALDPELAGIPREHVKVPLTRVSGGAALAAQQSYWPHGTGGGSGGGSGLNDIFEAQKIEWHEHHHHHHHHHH
Protocol: (§1) An Octet Kinetics buffer (PBS containing 0.01% (v/v) BSA and 0.002% (v/v) Tween20) is typically used as the diluent buffer for the analyte samples and as the flow buffer during the dissociation phase. The experimental data is recorded as shift in interference pattern (nm) over time, which is directly proportional to the optical thickness at the biosensor tip, which in turn is an approximate measure of the mass of analyte bound. The proprietary Octet Data Analysis software package can then be used to process data and fit binding models to the data sets. Returned association (ka, M-1 s-1) and dissociation (kd, s-1) rate constants allow calculation of dissociation (KD, M) affinity constants.
(§2) The affinity of binding between the analytes (humanised and phage display derived IgGs as human Alya IgG1s and Fabs) and human SEMA4A and cynomolgus SEMA4A, was estimated using assays in which the biotinylated SEMA4A antigen was captured on a streptavidin sensor tip. A fresh sensor tip was used for each measurement and no regeneration was used. A series of dilutions of the lead Fabs and human Alya IgG1s (3.25-240 nM) were individually placed in contact with the ligand surface for a sufficient amount of time to observe sensorgrams that could be fitted to an appropriate binding model with confidence (typically 5 minutes), followed by an appropriate length of dissociation time (typically 10 minutes). Blank reference (0 nM analyte) data were subtracted from each dataset to reduce the impact of any buffer artefacts or non-specific binding effects. A 1:1 binding model was then fitted simultaneously to the data from each analyte titration using the Octet Evaluation software (Table 8).

[2] = biological target: T2, recombinant cynomolgus SEMA4A AviHis10, biotinylated (cynomolgus, UniProt Q9H3S1 32-677 (human entry), biotin on the Avi tag (BirA)); test: as above
T2 construct: The text says amino acids 32-679 of G7NV79 with C-terminal Avi tag and His10 tag; also called Cyno SEMA4A AviHis10; cynoSEMA4A
T2 chain: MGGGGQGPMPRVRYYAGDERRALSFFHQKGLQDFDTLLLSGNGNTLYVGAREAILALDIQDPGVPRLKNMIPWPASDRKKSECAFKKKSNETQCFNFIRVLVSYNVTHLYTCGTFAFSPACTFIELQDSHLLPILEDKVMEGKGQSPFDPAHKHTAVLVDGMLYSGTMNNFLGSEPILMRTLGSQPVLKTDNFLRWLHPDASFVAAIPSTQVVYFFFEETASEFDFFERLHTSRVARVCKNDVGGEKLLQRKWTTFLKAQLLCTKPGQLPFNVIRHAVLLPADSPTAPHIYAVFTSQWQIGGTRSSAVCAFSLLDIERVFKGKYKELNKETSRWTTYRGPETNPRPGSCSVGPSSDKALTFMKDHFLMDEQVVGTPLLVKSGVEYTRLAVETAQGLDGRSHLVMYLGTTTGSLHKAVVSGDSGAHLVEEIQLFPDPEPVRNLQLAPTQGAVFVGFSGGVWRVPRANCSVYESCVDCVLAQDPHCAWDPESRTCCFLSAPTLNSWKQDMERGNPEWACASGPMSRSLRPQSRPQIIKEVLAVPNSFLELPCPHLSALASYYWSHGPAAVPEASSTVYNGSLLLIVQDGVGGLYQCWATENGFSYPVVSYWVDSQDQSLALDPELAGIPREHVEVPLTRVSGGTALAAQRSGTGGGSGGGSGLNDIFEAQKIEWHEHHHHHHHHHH
Protocol: as §1, §2

[3] = biological target: T3, human SEMA4A expressed on cells (UniProt ID Q9H3S1, isoform 1) (human, UniProt Q9H3S1 33-761); test: direct binding of un-purified human IgG1 to MM.1S cells endogenously expressing human SEMA4A (Mirrorball, anti-human Alexa Fluor 647); single concentration, 1.56 % final
T3 construct: Cell-surface SEMA4A: endogenous on MM.1S, NCI-H929 and Karpas-25 cells, or expi293 cells transfected with Origene SC323738; also called human Semaphorin4A; SEMA4A endogenously expressed on MM.1S cells
T3 sequence: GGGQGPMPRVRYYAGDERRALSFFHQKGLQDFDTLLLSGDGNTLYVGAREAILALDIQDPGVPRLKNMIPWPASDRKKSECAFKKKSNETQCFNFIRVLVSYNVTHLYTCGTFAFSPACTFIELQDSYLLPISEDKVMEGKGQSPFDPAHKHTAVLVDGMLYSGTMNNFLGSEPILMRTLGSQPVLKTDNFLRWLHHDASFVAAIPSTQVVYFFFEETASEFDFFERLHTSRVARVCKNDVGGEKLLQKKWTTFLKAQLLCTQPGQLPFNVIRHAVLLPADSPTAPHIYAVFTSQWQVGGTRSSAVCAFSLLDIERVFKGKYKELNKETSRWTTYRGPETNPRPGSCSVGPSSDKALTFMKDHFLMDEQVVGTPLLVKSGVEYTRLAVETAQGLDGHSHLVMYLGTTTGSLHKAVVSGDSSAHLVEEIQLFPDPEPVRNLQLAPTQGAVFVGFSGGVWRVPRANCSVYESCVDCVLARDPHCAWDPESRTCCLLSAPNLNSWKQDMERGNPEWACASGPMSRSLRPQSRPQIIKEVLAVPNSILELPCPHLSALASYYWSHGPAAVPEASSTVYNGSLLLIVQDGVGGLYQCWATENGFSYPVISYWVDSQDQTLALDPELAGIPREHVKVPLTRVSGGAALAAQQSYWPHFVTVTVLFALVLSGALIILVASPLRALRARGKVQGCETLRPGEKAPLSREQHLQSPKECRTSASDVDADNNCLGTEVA
Protocol: The MM.1S binding assay assessed the ability of the un-purified human IgG1s to bind directly to human SEMA4A that was endogenously expressed by MM.1S cells. Direct binding of a single concentration of un-purified human IgG1s to MM.1S cells was measured via an anti-human secondary labelled with Alexa Fluor 647 (Invitrogen, A21445). 10 μl undiluted un-purified IgG, contained in Expi293 expression medium (Gibco, UK, A1435101), were added to the assay plate (Greiner Bio-one, UK, 781906), followed by 10 μl 8 nM anti-human Alexa Fluor 647 and 20 μl MM.1S cell suspension containing 1,500 cells. The assay plate was incubated for 4 hours at room temperature in the dark prior to reading on a Mirrorball fluorescence cytometer (SPT Labtech, UK) using a 640 nm laser for excitation and measuring emission in the FL-4 channel (650-690 nm). Data was analysed as Count x median mean intensity (x FLU). All dilutions were performed in Hanks' balanced salt solution (Sigma, UK; cat: H8264) containing 0.1% (w/v) BSA (Sigma, UK; cat: A9576). Data were analysed and graphed using GraphPad Prism software (GraphPad Software, Inc, La Jolla, CA).

Row | Binder | Kd [1] [nM] | Kd [2] [nM] | binding result [3]
1 | 5Hg1-5Lg1 Fab fragment (Fab, V domains shown, Fab from pEU1.3 Fab vector (human CH1 and part of hinge) with a whole human light chain constant) VH: QVQLVQSGAEVKKPGASVKVSCKASGYTFTDYWMHWVRQAPGQGLEWMGAIDTSDSYTSYNQKFKGRVTMTRDTSTSTVYMELSSLRSEDTAVYYCARDYGNFYYYAMDYWGQGTLVTVSS VL: QAVVTQEPSLTVSPGGTVTLTCRSSTGAVTTSNYANWFQQKPGQAPRTLIYGTNNRAPWTPARFSGSLLGGKAALTLSGAQPEDEAEYYCALWYSNHWVFGGGTKLTVL | 66 | 73 | 
2 | 5Hg2-5Lg2 Fab fragment (Fab, V domains shown, Fab from pEU1.3 Fab vector (human CH1 and part of hinge) with a whole human light chain constant) VH: QVQLVQSGAEVKKPGASVKVSCKASGYTFTDYWMHWVRQAPGQRLEWMGAIDTSDSYTSYNQKFKGRVTITRDTSASTAYMELSSLRSEDTAVYYCARDYGNFYYYAMDYWGQGTLVTVSS VL: QAVVTQEPSLTVSPGGTVTLTCRSSTGAVTTSNYANWFQQKPGQAPRTLIYGTNNRAPWTPARFSGSLLGGKAALTLLGAQPEDEAEYYCALWYSNHWVFGGGTKLTVL | 41 | 48 | 
3 | mouse 5E3 Fab fragment (Fab, V domains shown, Fab from pEU1.3 Fab vector (human CH1 and part of hinge) with a whole human light chain constant; also called Mouse 5E3 (KD Fab)) VH: QVQLQQPGAELVMPGASVKMSCKASGYTFTDYWMHWVKQRPGQGLEWIGAIDTSDSYTSYNQKFKGKATLTVDESSSTAYMQLSSLTSEDSAVYYCARDYGNFYYYAMDYWGQGTSVTVSS VL: QAVVTQESALTTSPGETVTLTCRSSTGAVTTSNYANWVQEKPDHLFTGLIGGTNNRAPGVPARFSGSLIGDKAALTITGAQTEDEAIYFCALWYSNHWVFGGGTKLTVL | 9 | 9 | 
4 | C0120904 (antibody, V domains shown, un-purified fully human phage display IgG, primary screen; also called C0120904 un-purified human IgG1) VH: not shown VL: SYELTQPPSVSVSPGQTATISCSGNKLGDGYVSWYQQKPGQSPVLVIYQDSKRPSGIPQRYSGSNSGNTATLTISGTQAIDEADYYCQAWDSSTVVFGGGTKVTVL |  |  | binds
